Experimental findings from publication PMC2909360 (Molecular microbiology, 2010) are described below.

What all share (assay): cell-based or functional assay
Experiment [1] addresses recombinant human cathepsin L (human, UniProt P07711 18-333).
Experiment [2] has as its target recombinant human cathepsin S (human, UniProt P25774 17-331).
Experiment [3] has as its target purified bovine cathepsin C (bovine).
A further experiment deals with T1, purified papain (UniProt P00784 134-345).
T1 sequence (looked up): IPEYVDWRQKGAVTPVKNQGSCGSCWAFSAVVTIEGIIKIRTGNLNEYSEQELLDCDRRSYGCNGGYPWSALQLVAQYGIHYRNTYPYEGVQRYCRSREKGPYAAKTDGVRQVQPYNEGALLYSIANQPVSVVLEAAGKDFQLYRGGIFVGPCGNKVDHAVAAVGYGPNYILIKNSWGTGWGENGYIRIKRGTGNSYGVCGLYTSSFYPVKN

Sequence of recombinant human cathepsin S (P25774 17-331): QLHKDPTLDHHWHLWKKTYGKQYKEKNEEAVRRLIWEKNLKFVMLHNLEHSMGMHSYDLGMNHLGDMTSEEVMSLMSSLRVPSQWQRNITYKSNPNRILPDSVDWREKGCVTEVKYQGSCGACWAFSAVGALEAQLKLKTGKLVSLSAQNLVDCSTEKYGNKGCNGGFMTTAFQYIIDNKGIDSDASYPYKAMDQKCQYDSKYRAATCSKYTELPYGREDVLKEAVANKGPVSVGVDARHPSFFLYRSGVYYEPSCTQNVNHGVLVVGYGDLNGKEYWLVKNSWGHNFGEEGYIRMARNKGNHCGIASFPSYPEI
Sequence of recombinant human cathepsin L (P07711 18-333): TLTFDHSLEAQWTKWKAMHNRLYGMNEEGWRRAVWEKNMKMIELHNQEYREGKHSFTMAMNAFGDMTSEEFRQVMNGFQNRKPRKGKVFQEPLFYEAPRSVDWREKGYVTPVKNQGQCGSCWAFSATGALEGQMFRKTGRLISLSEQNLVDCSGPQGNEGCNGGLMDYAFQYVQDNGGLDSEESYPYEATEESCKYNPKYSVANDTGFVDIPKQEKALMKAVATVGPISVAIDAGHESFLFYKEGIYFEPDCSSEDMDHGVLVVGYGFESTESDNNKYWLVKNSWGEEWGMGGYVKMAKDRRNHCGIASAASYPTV
Sequence of purified bovine cathepsin C (bovine) (Q3ZCJ8 25-463): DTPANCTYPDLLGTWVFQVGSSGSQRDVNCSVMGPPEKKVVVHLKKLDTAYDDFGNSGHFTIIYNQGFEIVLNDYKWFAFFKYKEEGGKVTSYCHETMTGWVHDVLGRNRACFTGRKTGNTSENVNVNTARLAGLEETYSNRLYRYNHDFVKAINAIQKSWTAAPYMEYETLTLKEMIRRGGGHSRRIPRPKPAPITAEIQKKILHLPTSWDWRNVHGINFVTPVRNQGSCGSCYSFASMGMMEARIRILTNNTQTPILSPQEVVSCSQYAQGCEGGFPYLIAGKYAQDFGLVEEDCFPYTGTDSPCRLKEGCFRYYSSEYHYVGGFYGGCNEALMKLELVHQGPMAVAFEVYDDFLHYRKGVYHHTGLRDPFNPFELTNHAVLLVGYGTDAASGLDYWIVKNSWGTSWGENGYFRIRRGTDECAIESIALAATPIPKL

B1: sialostatin L2 (natural protein)
chain: MELALRGGYRERSNQDDPEYLELAHYATSTWSAQQPGKTHFDTVVEVLKVETQTVAGTNYRLTLKVAESTCELTSTYNKDTCQANANAAQRTCTTVIYRNLQGEKSISSFECAAA
For B1, the “IC50 of inhibition of enzyme activity (fluorogenic substrate)” value came to 1.1 nM in experiment [1], 114 nM in experiment [2], 4720 nM in experiment [3] and 0.4 nM in the experiment with purified papain.

B2: sialostatin L (natural protein)
chain: TGVFGGYSERANHQANPEFLNLAHYATSTWSAQQPGKTHFDTVAEVVKVETQVVAGTNYRLTLKVAESTCELTSTYNKDTCLPKADAAHRTCTTVVFENLQGDKSVSPFECEAA
For the molecule B2, the “IC50 of inhibition of enzyme activity (fluorogenic substrate)” value in experiment [1] was 1.6 nM; in experiment [2], 0.2 nM; in experiment [3], 160 nM; in the experiment with purified papain, 0.5 nM.
